{
  "source": "patent CN117384291A",
  "about": "(WUHAN ABCLONAL INC, dated 2024)",
  "binders": {"B1": {"name": "抗人SALL4兔单克隆抗体 (antibody, V domains shown)", "VH": "QSLEESGGRLVTPGGSLTLTCTVSGFSLSSNSITWVRQAPGKGLEWIGTMNIDNSTYYMSWAKGRLTISKTSTTVTLKMTSLTTEDTATYFCARIAVVSNTDIWGPGTLVTVSF", "VL": "AQALTQTPSSVSAAVGGTVTISCQSSQNVYDANALSWYQQKPGQPPKRLIYSASTLASGVPSRFKGSGSGTQFTLTISGVQCDDAASYYCAGVYYGKIGFGGGTEVVVKG", "notes": "also called 试验例2制备的抗人SALL4兔单克隆抗体; 识别人SALL4的兔单克隆抗体"}},
  "biological_target": "T1, 人SALL4蛋白 (human, UniProt Q9UJQ4 1-1053, limits assumed)",
  "T1 construct": "Endogenous SALL4 in fixed tissue sections; also called human SALL4",
  "T1 sequence (looked up)": "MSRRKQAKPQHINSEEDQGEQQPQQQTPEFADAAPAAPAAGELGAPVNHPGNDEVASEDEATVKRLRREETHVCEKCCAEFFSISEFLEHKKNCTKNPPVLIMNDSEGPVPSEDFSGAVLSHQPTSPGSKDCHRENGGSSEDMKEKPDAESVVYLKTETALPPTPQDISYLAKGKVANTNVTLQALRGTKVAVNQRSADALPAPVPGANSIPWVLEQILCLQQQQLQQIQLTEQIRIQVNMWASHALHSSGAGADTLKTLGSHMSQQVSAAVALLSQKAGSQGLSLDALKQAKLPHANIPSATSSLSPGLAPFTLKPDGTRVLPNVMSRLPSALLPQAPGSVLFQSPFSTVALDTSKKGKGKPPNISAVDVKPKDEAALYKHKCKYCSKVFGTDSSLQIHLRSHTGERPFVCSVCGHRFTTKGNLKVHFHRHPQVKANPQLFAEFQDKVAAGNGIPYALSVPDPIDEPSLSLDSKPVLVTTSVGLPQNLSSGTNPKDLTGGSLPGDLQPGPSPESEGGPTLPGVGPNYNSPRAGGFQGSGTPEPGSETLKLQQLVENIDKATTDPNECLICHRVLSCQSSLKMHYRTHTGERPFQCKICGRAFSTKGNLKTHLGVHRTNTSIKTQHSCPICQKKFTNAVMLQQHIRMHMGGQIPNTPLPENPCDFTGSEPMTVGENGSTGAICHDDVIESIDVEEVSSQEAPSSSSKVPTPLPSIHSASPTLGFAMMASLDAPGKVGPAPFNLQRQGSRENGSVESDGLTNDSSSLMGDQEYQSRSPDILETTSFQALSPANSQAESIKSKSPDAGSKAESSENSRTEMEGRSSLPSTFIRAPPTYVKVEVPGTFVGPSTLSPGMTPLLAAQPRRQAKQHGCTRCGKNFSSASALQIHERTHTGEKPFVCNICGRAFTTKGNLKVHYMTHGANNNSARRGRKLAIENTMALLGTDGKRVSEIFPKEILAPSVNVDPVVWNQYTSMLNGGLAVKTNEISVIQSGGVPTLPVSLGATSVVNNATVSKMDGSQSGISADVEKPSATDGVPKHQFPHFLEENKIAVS",
  "assay": "IHC on paraffin sections of human seminoma, primary antibody 1:100",
  "data": [
    {"binder": "B1", "values": [
      {"measurement": "binding result", "result": "binds"}
    ]}
  ]
}
